Assay [1] addresses T1, hAPLNR (Homo sapiens, UniProt P35414).
T1 construct: expressed in transfected cells
T1 sequence (P35414 1-380): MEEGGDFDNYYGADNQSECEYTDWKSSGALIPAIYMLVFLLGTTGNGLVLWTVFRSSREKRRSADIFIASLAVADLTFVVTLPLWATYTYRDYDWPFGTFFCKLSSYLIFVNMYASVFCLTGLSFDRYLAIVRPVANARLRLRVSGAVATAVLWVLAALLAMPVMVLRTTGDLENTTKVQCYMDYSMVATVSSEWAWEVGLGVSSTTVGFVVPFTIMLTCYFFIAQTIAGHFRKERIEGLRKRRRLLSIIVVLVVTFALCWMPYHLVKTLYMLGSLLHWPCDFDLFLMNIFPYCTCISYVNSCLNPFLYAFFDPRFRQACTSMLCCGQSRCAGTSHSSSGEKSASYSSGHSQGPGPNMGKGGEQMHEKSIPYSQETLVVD
Kind of assay: CRE assay of modified apelin peptides in HEK293/CRE-luc/hAPLNR cells. It counts as cell-based. The following applies: Table 9; 5 μM forskolin. As for the experimental part:
After 5 hours of incubation at 37° C. in 5% CO2, luminescence was measured following the addition of One Glo reagent (Promega, #E6051) using a Victor X instrument (Perkin Elmer). The data were fit by nonlinear regression to a 4-parameter logistic equation with Prism 5 software (GraphPad).

In assay [2] the target is T2, human APLNR (humanized APLNR mice) (Homo sapiens, UniProt P35414).
T2 construct: homozygous for expression of human APLNR in place of mouse APLNR (humanized APLNR mice); from tissue; host or cells: living humanized APLNR mouse pups (75% C57BL6 / 25% Sv129); read-out in the retina
T2 sequence (P35414 1-380): T1 sequence (P35414 1-380)
Kind of assay: retinal vascular development (RVD) model in humanized APLNR mouse pups. The assay is classed as in vivo. As for the experimental part:
To assess the in vivo characteristics of select anti-APLNR antibodies of the invention, their ability to block APLNR-mediated angiogenesis in the eye vasculature was measured.
A retinal vascular development (RVD) model was used to evaluate the effects of an antagonistic anti-APLNR antibody on blood vessel outgrowth in the normal developing retina of mouse pups that were of a mixed background strain (75% C57BL6 and 25% Sv129) and homozygous for expression of human APLNR in place of mouse APLNR (humanized APLNR mice). Pups were subcutaneously injected on postnatal day 2 (P2) with either 50 mg/kg of an anti-APLNR antagonist antibody, H2aM9232N, or an irrelevant human Fc (hFc) control. Reagents were masked and labeled as Solution A and Solution B to prevent experimenter bias. At postnatal day 5, tissue samples were collected and then fixed in PBS containing 4% paraformaldehyde. Fixed tissue samples were washed with PBS three times for 15 minutes, and subsequently stained with GS Lectin I (Vector Laboratories, #FL-1101) diluted 1:200 in 1×PBS containing 1% BSA in 0.25% Triton-X 100 overnight at 25° C. to visualize retinal vasculature. The following day, stained samples were rinsed with PBS three times for 15 minutes each, flat-mounted onto slides, and coverslips were subsequently mounted using Prolong Gold (Invitrogen, #P36930). Images were taken at 20 times magnification using an epi-fluorescent microscope (Nikon Eclipse 80). The vascularized areas in the retina were measured from acquired images from this assay using Adobe Photoshop CS6 extended. Statistical differences between the results obtained from the IgG control antibody and H2aM9232N treated samples were assessed using a two tailed, unpaired Student T-test (**, p<0.001). Only after retinal vasculature area measurements and statistical analysis were completed, the sample identities were unmasked.

The next assay concerns HEK293 parental cells. The experiment in a line: FACS binding to HEK293 parental cells. Conditions: 10 μg/mL antibody. The procedure:
Binding ratios for human APLNR binding to purified anti-APLNR monoclonal antibodies were determined by a fluorescence-activated cell sorting (FACS) binding assay. […] The resulting stable cell lines, HEK293/CRE-luc/hAPLNR and HEK293/CRE-luc/MfAPLNR, were maintained in DMEM containing 10% FBS, NEAA, and penicillin/streptomycin with either 100 μg/mL Hygromycin B for hAPLNR cells or 500 μg/mL G418 for MfAPLNR cells.
For the FACS analysis, HEK293 parental, HEK293/CRE-luc/hAPLNR, and, HEK293/CRE-luc/mfAPLNR cells were dissociated using Enzyme Free Dissociation reagent (#S-004, Millipore, Billerica, Mass., USA) and 10^6 cells/well were plated onto 96-well v-bottom plates in PBS containing 1% FBS. […] Cells were then filtered and analyzed on Accuri Flow Cytometer (BD Biosciences, San Jose, Calif., USA). Unstained and secondary antibody alone controls were also tested for binding to all cell lines. […] Geometric mean (Geom. mean) of fluorescence for each antibody was then normalized to geometric mean of unstained cells to obtain relative binding of antibody (binding ratios) per each cell type: HEK293 (parental), HEK293/CRE-luc/hAPLNR and HEK293/CRE-luc/MfAPLNR.

In assay [3] the target is T1, hAPLNR. Kind of assay: cyclic AMP (CRE-luciferase) assay, activation of hAPLNR in HEK293/CRE-luc/hAPLNR cells. It counts as cell-based. Conditions: % of maximum Apelin activation, without Apelin. As for the experimental part: The ability of anti-APLNR antibodies to activate hAPLNR-mediated cell signaling was measured using a cyclic AMP assay. The hAPLNR is a 7-transmembrane G-protein coupled receptor (GPCR).
The resulting cell line, HEK293/CRE-luc/hAPLNR, was maintained in DMEM containing 10% FBS, NEAA, penicillin/streptomycin, and 100 μg/mL Hygromycin B.
Testing of antibodies included a no antibody control.
The results of all assays were analyzed using nonlinear regression (4-parameter logistics) within Prism 5 software (GraphPad).

Where “and” joins values, the source holds several entries; their conditions need not be identical. Equal entries are not always repeated. Entries after “also recorded” stand apart in the source; their conditions may differ. No end group written: not given here.

On hAPLNR [1], `CSCC[C@H](NC(=O)[C@@H]1CCCN1C(=O)CNC(=O)[C@H](CCCCN)NC(=O)[C@H](Cc1c[nH]cn1)NC(=O)[C@H](CO)NC(=O)[C@H](CC(C)C)NC(=O)[C@H](CCCNC(=N)N)NC(=O)[C@@H]1CCCN1C(=O)[C@H](CCCNC(=N)N)NC(=O)[C@@H](N)CCC(N)=O)C(=O)N1CCC[C@H]1C(=O)N[C@@H](Cc1ccccc1)C(=O)NCC(=O)NCC(=O)NCC(=O)NCC(=O)NCC(=O)O` [Apelin-13 + 5G] displayed an EC50 of 0.147 nM.
On the same count and under the same terms, to PRLSHKGPM [Apelin67-75] belongs 374 nM; to RPRLSHKGPM [Apelin66-75], 0.00217 nM.
On the same count and under the same terms, the same measure for `CSCC[C@H](NC(=O)[C@@H]1CCCN1C(=O)CNC(=O)[C@H](CCCCN)NC(=O)[C@H](Cc1c[nH]cn1)NC(=O)[C@H](CO)NC(=O)[C@H](CC(C)C)NC(=O)[C@H](CCCNC(=N)N)NC(=O)[C@@H]1CCCN1C(=O)[C@@H](N)CCCNC(=N)N)C(=O)N1CCC[C@H]1C(=O)O` [Apelin66-76]: 0.00519 nM.

B1: H2aM9232N: antagonistic anti-APLNR antibody, HCVR/LCVR SEQ ID NOs 98/106, mouse IgG2a Fc (antibody, V domains shown)
VH: QVKLVESGGGVVQPGRSLRLSCAASGFTFSNYVIHWVRQAPGKGLEWVAVIWYDGSNKYYADSVKGRFTISRDNSKNTLYLQMNSLRAEDTAVYYCARDRVVRGVDYYYYYGLDVWGQGTSVTVSS
VL: EIVMTQSPATLSVSPGERATLSCRASQSVRSNLAWYQQKPGQAPRLLIYGASSRATGIPARFSGTGSGTEFTLTISSLQSDDFAVYYCQQYNKWPRTFGQGTKVEIK
modifications: mouse IgG2a Fc
B1: the “Retinal blood vessel outgrowth (mm^2), MEAN” value in assay [2] (50 mg/kg s.c. on postnatal day 2, read at postnatal day 5) was 2.84 mm^2. In assay [2] (50 mg/kg s.c. on postnatal day 2, read at postnatal day 5, single eyes (OD/OS)), the “Retinal blood vessel outgrowth (mm^2), individual eye” value was 2.49 mm^2 and 3.04 mm^2 and 3.57 mm^2 and 3.32 mm^2 and 2.23 mm^2 and 2.36 mm^2. Moreover, the “mean reduction in retinal blood vessel outgrowth compared to control (hFc)” value in assay [2] (single s.c. injection 50 mg/kg, postnatal day 5) is recorded as “approximately 30%”. Besides, the “Binding Ratio of Geom. Mean to Unstained Cells, HEK293 Parental” value in the assay on HEK293 parental cells is recorded as 6. The “% Activation at 100 nM mAb (at 10 uM Forskolin)” value in the assay with hAPLNR [3] (Table 6A) is “No Activation”. In the assay with hAPLNR [3] (Table 6B), the “% Activation at 500 nM mAb (at […] Forskolin)” value is reported as “did not demonstrate any measurable activation; also recorded: No Activation”.

The record behind these values is US20150252107A1, “APLNR Modulators and Uses Thereof” (Regeneron Pharmaceuticals, Inc., priority 2013, published 2015).
